According to patent US6485937:

Columns and labels:
[1] = molecular target: HIV TAT trans-activating protein (wildtype TAT, His-tagged fusion)
[2] = molecular target: carboxy terminal domain (CTD) of RNA polymerase II fused to GST (GST-CTD) [GST: P08515]

B1: FLAG-epitope tagged HIV tat interacting protein of 30 kDa (f-TIP30) (protein)
chain: DYKDDDDKMAETEALSKLREDFRMQNKSVFILGASGETGRVLLKEILEQGLFSKVTLIGRRKLTFDEEAYKNVNQEVVDFEKLDDYASAFQGHDVGFCCLGTTRGKAGAEGFVRVDRDYVLKSAELAKAGGCKHFNLLSSKGADKSSNFLYLQVKGEVEAKVEELKFDRYSVFRPGVLLCDRQESRPGEWLVRKFFGSLPDSWASGHSVPVVTVVRAMLNNVVRPRDKQMELLENKAIHDLGKAHGSLKP
stimulation of f-TIP30 kinase activity on GST-CTD substrate (in vitro kinase assay) [1]: stimulate the kinase activity of recombinant f-TIP30 on GST-CTD substrate in a dose dependant manner | in vitro kinase assay (phosphorylation of GST-CTD, [g-32P]ATP, autoradiography) [2]: it could phosphorylate the carboxy terminal domain (CTD) of RNA polymerase II fused to GST (GST-CTD) in an in vitro kinase assay
